# Data: the supplement of paper PMC12764529
# ± gives the half width of the 95% confidence interval.
# Legend:
# [1] = folding stability dG unfold (combined trypsin and chymotrypsin); higher = more stable
# In short: (§1)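 Bayesian fitting of sequencing counts gave K50 for each design. Unfolding free energy followed by setting this against a sequence-predicted unfolded-state K50 and a shared folded-state K50, either per protease or with trypsin and chymotrypsin combined. The designs, under 80 residues and lacking cysteine, were digested in a PA-tagged cDNA display format at 11 threefold-diluted protease concentrations and without protease, and only those with AlphaFold2 dimer inter-PAE above 15 were kept.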
# [2] = folding stability dG unfold from chymotrypsin proteolysis; higher = more stable
# In short: as §1
# [3] = folding stability dG unfold from trypsin proteolysis; higher = more stable
# In short: as §1
sequence,measurement,setting,value
SAGPTVRIRFAGEEEIEVEVGEELEIRLPDGSVVRIRVKPDGTVTVTRPDGSEVELEDVDEVEIEVFPASAG [r5_869_TrROS_Hall],folding stability dG unfold,[1],3.4 ± 0.2 kcal/mol
same,folding stability dG unfold,[2],3.21 ± 0.076 kcal/mol
same,folding stability dG unfold,[3],3.3 ± 0.13 kcal/mol
SAGGSMPPDTEIAVIRVEVRPPDGSTLPLLFTVPLEKVEEVAKEIAERLREKGYEVKVELAAVFPVSAGGSA [r2_274_TrMRF],folding stability dG unfold,[1],2.04 ± 0.11 kcal/mol
same,folding stability dG unfold,[2],2.18 ± 0.06 kcal/mol
same,folding stability dG unfold,[3],2.06 ± 0.057 kcal/mol
SAGGSAITIEVTMNPNGYMGIRLRDPGNGEEIQIPFPMEPGQNPEDVRNWAREIVDELKKDGWRIYSAGGSA [r15_1022_TrROS],folding stability dG unfold,[1],1.59 ± 0.038 kcal/mol
same,folding stability dG unfold,[2],1.76 ± 0.11 kcal/mol
same,folding stability dG unfold,[3],1.28 ± 0.019 kcal/mol
SAGGSAGGGGSSMTIVDPKDVPFGQTFTVTTYAPGGKKISTTTLTVDVPPPVWRTDGNGKWFLESAGGSAGG [r6_487_JUSTAS],folding stability dG unfold,[1],0.4 ± 0.2 kcal/mol
same,folding stability dG unfold,[2],0.28 ± 0.27 kcal/mol
same,folding stability dG unfold,[3],0.163 ± 0.19 kcal/mol
SAGGSMTTITLTLEFELDENGEVDPEKIEAEAEKIKEENPEIKELTVEVKRDPNSNKITVTVTAKVPSAGGS [r8_258_JUSTAS],folding stability dG unfold,[1],3.06 ± 0.18 kcal/mol
same,folding stability dG unfold,[2],3.29 ± 0.19 kcal/mol
same,folding stability dG unfold,[3],2.79 ± 0.2 kcal/mol
SAGGSAGGSAGGSKKKPPKKITLVVWNEETGELTKVEFDAETKEVKVEKVPIKPGDILLSAGGSAGGSAGGS [r4_409_TrROS_Hall],folding stability dG unfold,[1],0.988 ± 0.21 kcal/mol
same,folding stability dG unfold,[2],0.946 ± 0.062 kcal/mol
same,folding stability dG unfold,[3],1.18 ± 0.034 kcal/mol
SMTPEEARALAEAIAAERAAAGYATEMELTVTPVNGVPVATFRFRFTDAAGRATEFTVTVAPDGTVTFTPSA [r9_1027_JUSTAS],folding stability dG unfold,[1],3.64 ± 0.08 kcal/mol
same,folding stability dG unfold,[2],3.814 ± 0.031 kcal/mol
same,folding stability dG unfold,[3],3.34 ± 0.089 kcal/mol
SAGGSAGGSAGGMGPPPIETIVIEKPLSEEEYEALKKAYPDKKVTVSEIPGTPNKIATIESAGGSAGGSAGG [r17_254_JUSTAS],folding stability dG unfold,[1],0.0243 ± 0.19 kcal/mol
same,folding stability dG unfold,[2],-0.192 ± 0.098 kcal/mol
same,folding stability dG unfold,[3],0.363 ± 0.042 kcal/mol
SAGGSKMEIVKYDKEKNVIYVRVDGKTYTFPLDEITEVTFDEETGELTIKVNGKTYTIKLDLPDLVSAGGSA [r2_48_TrROS_Hall],folding stability dG unfold,[1],4.11 ± 0.29 kcal/mol
same,folding stability dG unfold,[2],4.29 ± 0.12 kcal/mol
same,folding stability dG unfold,[3],3.22 ± 0.16 kcal/mol
SAGGSAGGSAPTLELTVTLPDGLRVTVRYDLETDEVTIEVRPLPAPPPPELSEEERKKLAEESAGGSAGGSA [r18_236_TrROS_Hall],folding stability dG unfold,[1],1.98 ± 0.12 kcal/mol
same,folding stability dG unfold,[2],2.25 ± 0.2 kcal/mol
same,folding stability dG unfold,[3],1.24 ± 0.056 kcal/mol
SAGGSAGGSAGGPLKLKVKLKLEFEVKDENGKTSKVELEVELEVELPEIVLDKNGKLLLSAGGSAGGSAGGS [r10_168_TrROS_Hall],folding stability dG unfold,[1],2.95 ± 0.32 kcal/mol
same,folding stability dG unfold,[2],3.39 ± 0.26 kcal/mol
same,folding stability dG unfold,[3],2.42 ± 0.091 kcal/mol
SEEEYLVIEVEFEVENPEEAREFAERLARELPLDEIESLEVEVEPREVFVEGEPVGPVYRFRVRAVVRPRSA [r9_605_TrMRF],folding stability dG unfold,[1],2.77 ± 0.079 kcal/mol
same,folding stability dG unfold,[2],2.98 ± 0.048 kcal/mol
same,folding stability dG unfold,[3],2.62 ± 0.069 kcal/mol
SAGMPSFTTTSAPTEQLPELLAELATRPPNVSYTFPLPDPSRSLSLSVSADRITLTDPATGTTTTLPASAGG [r19_154_JUSTAS],folding stability dG unfold,[1],-0.779 ± 0.2 kcal/mol
same,folding stability dG unfold,[2],-1.12 ± 0.51 kcal/mol
same,folding stability dG unfold,[3],-0.653 ± 0.17 kcal/mol
SAGGSAGGSAGGPDFKIEPVEKKGNYELYKAYIPETGEEFFLVYYPNPKEVKIYPSDYLSAGGSAGGSAGGS [r10_172_TrMRF],folding stability dG unfold,[1],1.29 ± 0.049 kcal/mol
same,folding stability dG unfold,[2],1.52 ± 0.034 kcal/mol
same,folding stability dG unfold,[3],0.754 ± 0.038 kcal/mol
SAGGTPVVVPATITVPVPFGAPARVTIFTPEDGHVLALIELPDGAVLVATFDPTTGELHVAPYADAASAGGS [r16_735_TrMRF],folding stability dG unfold,[1],2.23 ± 0.14 kcal/mol
same,folding stability dG unfold,[2],2.78 ± 0.06 kcal/mol
same,folding stability dG unfold,[3],1.19 ± 0.061 kcal/mol
SAGGSAGGSAGMKPNEPDLVLLTTTVTLTTTETTTDEDGNTYTTTTTTTLTTTTLLPRGTSAGGSAGGSAGG [r17_523_TrROS_Hall],folding stability dG unfold,[1],3.63 ± 0.1 kcal/mol
same,folding stability dG unfold,[2],3.94 ± 0.087 kcal/mol
same,folding stability dG unfold,[3],2.77 ± 0.17 kcal/mol
SAEDEYEVELTFEAPLNEPEVIEKIKKELEELGFEIEEVKVEVLEDPKTVKVTLKARVKGIPPEKLKALSAG [r14_956_TrMRF],folding stability dG unfold,[1],1.82 ± 0.086 kcal/mol
same,folding stability dG unfold,[2],1.92 ± 0.099 kcal/mol
same,folding stability dG unfold,[3],1.78 ± 0.033 kcal/mol
SAGGSAGGSAGMLWIHDPESGTLVMLHPKPDGEVNVQVWQFDPDNGKPEIKTVPADNIEASAGGSAGGSAGG [r11_285_TrROS],folding stability dG unfold,[1],0.924 ± 0.091 kcal/mol
same,folding stability dG unfold,[2],1.22 ± 0.18 kcal/mol
same,folding stability dG unfold,[3],0.376 ± 0.046 kcal/mol
MMYLIRVTVYDEETEEEVEEIEILIELSEEELKNMSEEEREKLLEEALKKAEELAKEYPNLKIEVEIVELPS [r1_115_TrROS_Hall],folding stability dG unfold,[1],3.83 ± 0.14 kcal/mol
same,folding stability dG unfold,[2],4.01 ± 0.09 kcal/mol
same,folding stability dG unfold,[3],3.52 ± 0.13 kcal/mol
SAGGSAGGGMVKVTLRITYYNSTGPYTSDRVFELPPDEVEALIEAIPPPPDATPEVEVEREPLGSAGGSAGG [r6_428_JUSTAS],folding stability dG unfold,[1],1.22 ± 0.14 kcal/mol
same,folding stability dG unfold,[2],1.53 ± 0.15 kcal/mol
same,folding stability dG unfold,[3],0.8 ± 0.042 kcal/mol
SPEIKIEVFKNEDGEEIFIKIEVPPGWRIRIIYNGKEIEEIEVDGYRIRFEEVDGKLRIEVEPLPPGEKPSA [r9_221_TrROS_Hall],folding stability dG unfold,[1],5.2 ± 0.27 kcal/mol
same,folding stability dG unfold,[2],5.48 ± 0.15 kcal/mol
same,folding stability dG unfold,[3],3.87 ± 0.081 kcal/mol
SAGGSAGGSAGMTLEELERLGYKVEVFRHPDTPEVYVRVEYPVPPGGLKRAVIPLKDVKLSAGGSAGGSAGG [r17_311_TrMRF],folding stability dG unfold,[1],0.499 ± 0.039 kcal/mol
same,folding stability dG unfold,[2],0.93 ± 0.077 kcal/mol
same,folding stability dG unfold,[3],-1.35 ± 0.52 kcal/mol
SAGGSAGGSMVEITFPPDLSEEEAEALAKELEEKYNKKVKITKVPPEIPVPLPQYDPTNWVEVSAGGSAGGS [r12_159_JUSTAS],folding stability dG unfold,[1],-0.108 ± 0.2 kcal/mol
same,folding stability dG unfold,[2],-0.0306 ± 0.11 kcal/mol
same,folding stability dG unfold,[3],-0.0502 ± 0.06 kcal/mol
SAGGSAGGSMKITKIEVEENEDGTLTVRLELEFVDPETKETYRVELEITVSKEELEKLLEALKSAGGSAGGS [r12_691_TrROS_Hall],folding stability dG unfold,[1],3.9 ± 0.23 kcal/mol
same,folding stability dG unfold,[2],4.09 ± 0.21 kcal/mol
same,folding stability dG unfold,[3],3.03 ± 0.12 kcal/mol
SAGGSMTMTVEIHYPDGTVETRTVPYAPDDPAAAIAAVKAEVEARGGEVLAVETRDGVVTVKALVPPSAGGS [r16_662_JUSTAS],folding stability dG unfold,[1],2.72 ± 0.095 kcal/mol
same,folding stability dG unfold,[2],3.01 ± 0.086 kcal/mol
same,folding stability dG unfold,[3],2.4 ± 0.07 kcal/mol
SAGGSAGGSKAGQPIEGPVKIKFTSNGKPHEIDVEVYVLPPGNLIIYFPDESIMLPADNIEIESAGGSAGGS [r12_790_TrROS],folding stability dG unfold,[1],1.6 ± 0.063 kcal/mol
same,folding stability dG unfold,[2],1.91 ± 0.078 kcal/mol
same,folding stability dG unfold,[3],1.09 ± 0.072 kcal/mol
SAGGSAGGSASIELPPDATVTLTTLDPATGTVTTTTVKVDSTGTTTLATTTTTVDPASAAAASAGGSAGGSA [r18_248_JUSTAS],folding stability dG unfold,[1],1.41 ± 0.11 kcal/mol
same,folding stability dG unfold,[2],1.35 ± 0.028 kcal/mol
same,folding stability dG unfold,[3],1.27 ± 0.055 kcal/mol
SPKGIYIFMIQVKWKNPNGNEWTFPIMVPMDEMPEEELRDFIREFFPGFDDVDIEPQVMRIPPSPEAREKSA [r9_841_TrROS],folding stability dG unfold,[1],2.57 ± 0.28 kcal/mol
same,folding stability dG unfold,[2],2.75 ± 0.17 kcal/mol
same,folding stability dG unfold,[3],2.3 ± 0.16 kcal/mol
SAGGSAGGLKPGEEWLILFRIDIEIEPMPPNMSPDMAKRFPNMYHIEVKIDILIIPAEDLKELFSAGGSAGG [r6_831_TrROS],folding stability dG unfold,[1],3.51 ± 0.13 kcal/mol
same,folding stability dG unfold,[2],3.74 ± 0.042 kcal/mol
same,folding stability dG unfold,[3],3.17 ± 0.13 kcal/mol
SAGGSAGGSAVRTIFIPGGNIKDIIELIKSDPGQPVQIHAPDGWVIKITGDKDIDIHPFPDSAGGSAGGSAG [r3_269_TrROS],folding stability dG unfold,[1],0.216 ± 0.15 kcal/mol
same,folding stability dG unfold,[2],0.337 ± 0.084 kcal/mol
same,folding stability dG unfold,[3],-0.44 ± 0.2 kcal/mol
SAGGSAGGDAKTFEVEGMTVFVDPETGLAVAEFPDGYLALGRIEVFGPGVAKVDLEIFPLPPGLSAGGSAGG [r6_670_TrMRF],folding stability dG unfold,[1],1.61 ± 0.13 kcal/mol
same,folding stability dG unfold,[2],1.53 ± 0.071 kcal/mol
same,folding stability dG unfold,[3],1.74 ± 0.11 kcal/mol
